Experimental data: paper PMC12572175 (2025)

Biological target: Protein A domain D (Staphylococcus aureus)
Assay: BLI

Binder	Kd
n501 T77A (antibody) EVQLVESGGGLVQPGGSLRLSCAASDFTFRNYEMSWVRQAPGKGLEWVSSISGSGGSTYYAHSLKGRFAISRDNSKNTLYLQMNSLRAEDTAIYYCARLRDGFNNGFDYWGQGTLVTVSS	324 nM
n501 N92A (antibody) EVQLVESGGGLVQPGGSLRLSCAASDFTFRNYEMSWVRQAPGKGLEWVSSISGSGGSTYYAHSLKGRFTISRDNSKNTLYLQMASLRAEDTAIYYCARLRDGFNNGFDYWGQGTLVTVSS	328 nM
